Measured values published in patent US20110151530.

Tested on: IcmBmp, icmB gene product of Methylibium petroleiphilum (subunit of hydroxyisobutyryl-CoA mutase)

B1: IcmAmp, icmA gene product of Methylibium petroleiphilum (subunit of hydroxyisobutyryl-CoA mutase) (enzyme)
chain: MTWLEPQIKSQLQSERKDWEANEVGAFLKKAPERKEQFHTIGDFPVQRTYTAADIADTPLEDIGLPGRYPFTRGPYPTMYRSRTWTMRQIAGFGTGEDTNKRFKYLIAQGQTGISTDFDMPTLMGYDSDHPMSDGEVGREGVAIDTLADMEALLADIDLEKISVSFTINPSAWILLAMYVALGEKRGYDLNKLSGTVQADILKEYMAQKEYIYPIAPSVRIVRDIITYSAKNLKRYNPINISGYHISEAGSSPLQEAAFTLANLITYVNEVTETGMHVDEFAPRLAFFFVSQGDFFEEVAKFRALRRCYAKIMKERFGAKNPESMRLRFHCQTAAATLTKPQYMVNVVRTSLQALSAVLGGAQSLHTNGYDEAFAIPTEDAMKMALRTQQIIAEESGVADVIDPLGGSYYVEALTTEYEKKIFEILEEVEKRGGTIKLIEQGWFQKQIADFAYETALRKQSGQKPVIGVNRFVENEEDVKIEIHPYDNTTAERQISRTRRVRAERDEAKVQAMLDQLVAVAKDESQNLMPLTIELVKAGATMGDIVEKLKGIWGTYRETPVF
- Activity of purified enzyme (mUI/mg): Hydroxyisobutyryl-CoA mutase (with 3-Hydroxybutyryl-CoA 1 mM in aerobic conditions): 2 mUI/mg
- Activity of purified enzyme (mUI/mg): Hydroxyisobutyryl-CoA mutase (with 3-Hydroxybutyryl-CoA 1 mM in anaerobic conditions): 46 mUI/mg
- Activity of purified enzyme (mUI/mg): Hydroxyisobutyryl-CoA mutase (with 3-Hydroxybutyryl-CoA 10 mM in anaerobic conditions): 223 mUI/mg
